Data taken from patent US20240252635A1 (Genmab, published 2024).
Residue numbers refer to the chain shown, from its start. Numbers in names are those of the source.

T1: cynomolgus monkey CD37 (cynomolgus monkey (Macaca fascicularis), UniProt P11049 1-281 (human entry))
T1 construct: also called mfCD37; cynomolgus CD37
T1 chain: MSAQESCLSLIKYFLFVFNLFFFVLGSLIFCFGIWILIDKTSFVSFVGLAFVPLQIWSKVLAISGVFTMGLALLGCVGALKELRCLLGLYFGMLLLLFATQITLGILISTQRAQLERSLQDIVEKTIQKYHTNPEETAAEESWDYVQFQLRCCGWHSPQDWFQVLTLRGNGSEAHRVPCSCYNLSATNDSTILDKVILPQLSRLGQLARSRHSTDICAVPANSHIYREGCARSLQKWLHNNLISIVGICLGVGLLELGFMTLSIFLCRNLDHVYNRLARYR

T2: human CD37 (human (Homo sapiens), UniProt P11049 1-281)
T2 construct: Endogenous on Daudi cells, Raji cells and human blood B cells; also called Leukocyte Antigen CD37; GP52-40
T2 sequence: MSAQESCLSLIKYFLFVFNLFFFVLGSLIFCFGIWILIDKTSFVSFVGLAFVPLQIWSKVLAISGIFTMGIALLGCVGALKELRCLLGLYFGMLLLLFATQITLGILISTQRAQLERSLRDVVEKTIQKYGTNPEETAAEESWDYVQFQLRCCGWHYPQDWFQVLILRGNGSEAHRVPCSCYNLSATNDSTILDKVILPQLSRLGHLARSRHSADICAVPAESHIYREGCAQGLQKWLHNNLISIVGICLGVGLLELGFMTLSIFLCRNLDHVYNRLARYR

B1: IgG1-004-H5L2-E430G (antibody)
heavy: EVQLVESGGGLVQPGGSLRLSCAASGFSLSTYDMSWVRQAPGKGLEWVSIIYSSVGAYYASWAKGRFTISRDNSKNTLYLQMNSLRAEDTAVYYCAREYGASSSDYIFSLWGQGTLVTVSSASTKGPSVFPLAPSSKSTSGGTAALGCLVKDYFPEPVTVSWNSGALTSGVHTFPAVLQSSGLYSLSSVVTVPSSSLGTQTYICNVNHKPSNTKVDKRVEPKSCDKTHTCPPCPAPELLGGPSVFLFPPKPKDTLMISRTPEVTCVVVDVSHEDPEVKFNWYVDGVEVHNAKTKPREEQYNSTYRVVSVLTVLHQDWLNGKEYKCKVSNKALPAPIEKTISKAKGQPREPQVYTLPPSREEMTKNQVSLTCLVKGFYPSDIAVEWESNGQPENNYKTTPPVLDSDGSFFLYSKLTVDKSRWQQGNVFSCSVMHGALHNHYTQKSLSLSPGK
light: AQVLTQSPSPLSASVGDRVTITCQASQSVYNSQNLAWYQQKPGKAPKLLIYEASKLASGVPSRFKGSGSGTEFTLTISSLQPDDFATYYCQGEFSCISADCTAFGGGTKVEIKRTVAAPSVFIFPPSDEQLKSGTASVVCLLNNFYPREAKVQWKVDNALQSGNSQESVTEQDSKDSTYSLSSTLTLSKADYEKHKVYACEVTHQGLSSPVTKSFNRGEC
notes: IgG1,kappa with E430G (EU numbering)
B2: IgG1-016-H5L2-E430G (antibody)
heavy: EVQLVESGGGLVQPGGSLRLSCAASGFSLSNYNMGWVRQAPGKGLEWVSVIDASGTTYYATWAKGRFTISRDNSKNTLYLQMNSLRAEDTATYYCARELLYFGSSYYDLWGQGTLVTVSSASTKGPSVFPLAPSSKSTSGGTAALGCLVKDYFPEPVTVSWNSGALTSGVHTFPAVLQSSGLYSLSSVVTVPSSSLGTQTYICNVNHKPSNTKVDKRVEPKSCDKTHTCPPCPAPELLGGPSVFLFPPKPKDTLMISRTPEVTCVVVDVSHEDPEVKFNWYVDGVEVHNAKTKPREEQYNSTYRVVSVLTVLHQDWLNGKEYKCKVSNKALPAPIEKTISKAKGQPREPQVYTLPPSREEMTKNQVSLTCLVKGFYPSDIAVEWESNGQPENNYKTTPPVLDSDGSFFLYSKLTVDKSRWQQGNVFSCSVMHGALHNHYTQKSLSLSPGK
light: DVVMTQSPSTLSASVGDRVTITCQASQNIDSNLAWYQQKPGKAPKFLIYYASNLPFGVPSRFKGSGSGTEFTLTISSLQPDDFATYYCQCADVGSTYVAAFGGGTKVEIKRTVAAPSVFIFPPSDEQLKSGTASVVCLLNNFYPREAKVQWKVDNALQSGNSQESVTEQDSKDSTYSLSSTLTLSKADYEKHKVYACEVTHQGLSSPVTKSFNRGEC
notes: IgG1,kappa with E430G
B3: IgG1-005-H1L2-E430G (antibody)
heavy: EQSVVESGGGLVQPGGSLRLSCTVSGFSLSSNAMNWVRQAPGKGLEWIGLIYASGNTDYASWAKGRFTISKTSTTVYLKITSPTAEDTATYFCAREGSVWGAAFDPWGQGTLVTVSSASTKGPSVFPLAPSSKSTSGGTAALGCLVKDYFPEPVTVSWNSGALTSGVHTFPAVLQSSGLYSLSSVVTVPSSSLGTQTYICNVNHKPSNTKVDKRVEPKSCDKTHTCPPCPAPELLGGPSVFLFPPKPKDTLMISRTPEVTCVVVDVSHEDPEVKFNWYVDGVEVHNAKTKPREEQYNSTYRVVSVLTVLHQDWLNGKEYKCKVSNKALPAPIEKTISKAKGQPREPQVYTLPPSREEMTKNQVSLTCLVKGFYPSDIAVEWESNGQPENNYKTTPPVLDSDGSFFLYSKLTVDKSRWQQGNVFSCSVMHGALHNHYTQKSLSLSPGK
light: AYDMTQSPSSVSASVGDRVTITCQASQSISNWLAWYQQKPGKAPKQLIYAASTLASGVPSRFKGSGSGTDFTLTISSLQPEDFATYYCQQGYSNSNIDNTFGGGTKVEIKRTVAAPSVFIFPPSDEQLKSGTASVVCLLNNFYPREAKVQWKVDNALQSGNSQESVTEQDSKDSTYSLSSTLTLSKADYEKHKVYACEVTHQGLSSPVTKSFNRGEC
notes: IgG1,kappa with E430G
B4: IgG1-010-H5L2-E430G (antibody)
heavy: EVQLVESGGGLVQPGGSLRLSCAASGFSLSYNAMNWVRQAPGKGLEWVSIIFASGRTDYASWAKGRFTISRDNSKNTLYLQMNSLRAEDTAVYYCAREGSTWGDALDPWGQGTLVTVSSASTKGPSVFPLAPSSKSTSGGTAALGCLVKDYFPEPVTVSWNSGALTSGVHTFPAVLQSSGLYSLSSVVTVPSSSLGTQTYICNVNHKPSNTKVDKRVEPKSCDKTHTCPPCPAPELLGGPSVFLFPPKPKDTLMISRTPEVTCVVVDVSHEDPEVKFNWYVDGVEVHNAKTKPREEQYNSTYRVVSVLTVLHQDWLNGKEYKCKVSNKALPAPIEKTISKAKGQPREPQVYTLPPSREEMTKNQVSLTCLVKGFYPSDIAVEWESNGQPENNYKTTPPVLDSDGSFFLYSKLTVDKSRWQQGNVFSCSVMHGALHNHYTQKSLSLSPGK
light: AYDMTQSPSTLSASVGDRVTITCQASQNIIDYLAWYQQKPGKAPKLLIHKASTLASGVPSRFKGSGSGTEFTLTISSLQPDDFATYYCQQGYSNSNIDNTFGGGTKVEIKRTVAAPSVFIFPPSDEQLKSGTASVVCLLNNFYPREAKVQWKVDNALQSGNSQESVTEQDSKDSTYSLSSTLTLSKADYEKHKVYACEVTHQGLSSPVTKSFNRGEC
notes: IgG1,kappa with E430G
B5: IgG1-G28.1 (antibody)
heavy: not shown
light: DIQMTQSPASLSASVGETVTITCRTSENVYSYLAWYQQKQGKSPQLLVSFAKTLAEGVPSRFSGSGSGTQFSLKISSLQPEDSGSYFCQHHSDNPWTFGGGTELEIKRTVAAPSVFIFPPSDEQLKSGTASVVCLLNNFYPREAKVQWKVDNALQSGNSQESVTEQDSKDSTYSLSSTLTLSKADYEKHKVYACEVTHQGLSSPVTKSFNRGEC
notes: IgG1,kappa
B6: IgG1-G28.1-E430G (antibody)
heavy: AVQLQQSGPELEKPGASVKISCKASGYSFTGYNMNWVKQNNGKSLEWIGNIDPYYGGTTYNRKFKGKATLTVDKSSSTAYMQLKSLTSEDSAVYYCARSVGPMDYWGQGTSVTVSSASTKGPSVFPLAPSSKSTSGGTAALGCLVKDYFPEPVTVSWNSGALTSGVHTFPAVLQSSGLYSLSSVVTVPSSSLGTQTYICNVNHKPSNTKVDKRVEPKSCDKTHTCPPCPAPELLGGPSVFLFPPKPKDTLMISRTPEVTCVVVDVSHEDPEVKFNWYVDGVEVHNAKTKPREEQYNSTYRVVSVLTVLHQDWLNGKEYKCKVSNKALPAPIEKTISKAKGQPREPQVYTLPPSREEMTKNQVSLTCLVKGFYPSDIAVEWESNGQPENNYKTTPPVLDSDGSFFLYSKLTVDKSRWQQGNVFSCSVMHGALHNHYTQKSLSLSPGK
light: B5 light
notes: IgG1,kappa with E430G
B7: bsIgG1-016-H5L2-LC90S-F405L-E430Gx010-H5L2-K409R-E430G (bispecific antibody)
heavy 1: not shown
light 1: B2 light with C90S
heavy 2: not shown
light 2: B4 light
notes: also called bispecific CD37 antibody
B8: IgG1-004-H5L2 (antibody)
heavy: not shown
light: B1 light
B9: IgG1-37.3 (antibody)
heavy: not shown
light: DIQMTQSPASLSVSVGETVTITCRASENIRSNLAWYQQKQGKSPQLLVNVATNLADGVPSRFSGSGSGTQYSLKINSLQSEDFGTYYCQHYWGTTWTFGGGTKLEIKRTVAAPSVFIFPPSDEQLKSGTASVVCLLNNFYPREAKVQWKVDNALQSGNSQESVTEQDSKDSTYSLSSTLTLSKADYEKHKVYACEVTHQGLSSPVTKSFNRGEC
notes: IgG1,kappa
B10: IgG1-37.3-E430G (antibody)
heavy: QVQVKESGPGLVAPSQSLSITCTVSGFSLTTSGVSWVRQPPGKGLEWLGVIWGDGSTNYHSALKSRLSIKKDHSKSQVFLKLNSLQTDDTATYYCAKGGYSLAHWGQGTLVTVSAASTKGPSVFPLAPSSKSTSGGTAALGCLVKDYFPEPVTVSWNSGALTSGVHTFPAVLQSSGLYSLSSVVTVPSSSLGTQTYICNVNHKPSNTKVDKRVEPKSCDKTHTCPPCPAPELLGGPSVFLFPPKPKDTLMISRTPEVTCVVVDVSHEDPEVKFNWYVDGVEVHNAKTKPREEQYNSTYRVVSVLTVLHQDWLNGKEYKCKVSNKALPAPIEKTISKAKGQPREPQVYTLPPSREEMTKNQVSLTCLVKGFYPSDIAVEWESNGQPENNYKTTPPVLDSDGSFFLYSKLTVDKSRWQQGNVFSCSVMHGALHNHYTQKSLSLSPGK
light: B9 light
notes: IgG1,kappa with E430G
B11: IgG1-016-H5L2-F405L-E430G (antibody)
heavy: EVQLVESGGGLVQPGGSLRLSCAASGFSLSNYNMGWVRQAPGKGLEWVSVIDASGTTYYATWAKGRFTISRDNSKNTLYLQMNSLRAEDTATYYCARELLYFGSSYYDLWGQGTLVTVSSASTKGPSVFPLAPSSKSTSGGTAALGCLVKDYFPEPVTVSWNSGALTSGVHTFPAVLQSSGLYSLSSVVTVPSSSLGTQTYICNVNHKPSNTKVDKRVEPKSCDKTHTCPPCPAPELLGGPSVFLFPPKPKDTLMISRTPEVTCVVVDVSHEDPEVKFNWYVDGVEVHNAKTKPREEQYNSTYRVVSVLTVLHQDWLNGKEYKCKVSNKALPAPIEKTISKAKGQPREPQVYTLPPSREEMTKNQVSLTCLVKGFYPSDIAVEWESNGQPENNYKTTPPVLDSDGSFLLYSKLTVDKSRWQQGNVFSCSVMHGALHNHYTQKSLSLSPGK
light: B2 light
notes: IgG1,kappa with F405L and E430G
B12: IgG1-016-H5L2 (antibody)
heavy: not shown
light: B2 light
notes: Humanized, IgG1,kappa
B13: IgG1-016-H5L2-LC90S-F405L-E430G (antibody, V domains shown)
VH: EVQLVESGGGLVQPGGSLRLSCAASGFSLSNYNMGWVRQAPGKGLEWVSVIDASGTTYYATWAKGRFTISRDNSKNTLYLQMNSLRAEDTATYYCARELLYFGSSYYDLWGQGTLVTVSS
VL: DVVMTQSPSTLSASVGDRVTITCQASQNIDSNLAWYQQKPGKAPKFLIYYASNLPFGVPSRFKGSGSGTEFTLTISSLQPDDFATYYCQSADVGSTYVAAFGGGTKVEIKR
notes: light chain carries C90S; also called D1; IgG1-3009-016-H5L2-F405L-E430G-LC90S
B14: IgG1-005-H1L2 (antibody)
heavy: not shown
light: B3 light
notes: Humanized, IgG1,kappa
B15: IgG1-005-H1L2-K409R-E430G (antibody)
heavy: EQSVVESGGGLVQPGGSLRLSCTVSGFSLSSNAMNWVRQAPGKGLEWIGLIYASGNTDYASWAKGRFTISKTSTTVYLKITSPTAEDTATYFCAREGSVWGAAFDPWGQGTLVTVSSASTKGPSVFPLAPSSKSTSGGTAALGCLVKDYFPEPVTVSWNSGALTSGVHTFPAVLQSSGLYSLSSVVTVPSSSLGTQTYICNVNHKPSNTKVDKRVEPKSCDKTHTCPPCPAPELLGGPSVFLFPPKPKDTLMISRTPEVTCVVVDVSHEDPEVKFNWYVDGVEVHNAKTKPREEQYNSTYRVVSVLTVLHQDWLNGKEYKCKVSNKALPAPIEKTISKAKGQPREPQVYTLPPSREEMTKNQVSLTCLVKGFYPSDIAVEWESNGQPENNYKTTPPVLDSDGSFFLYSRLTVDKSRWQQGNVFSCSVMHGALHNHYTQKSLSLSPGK
light: B3 light
notes: IgG1,kappa with K409R and E430G
B16: IgG1-010-H5L2 (antibody)
heavy: not shown
light: B4 light
notes: Humanized, IgG1,kappa

Molecular target: T1, cynomolgus monkey CD37
Assay: flow cytometry on CHO cells expressing cynomolgus monkey CD37
Procedure: (§1) Binding to cell surface expressed CD37 (Daudi cells, CHO cells expressing cynomolgus CD37) was determined by flow cytometry. Cells, resuspended in RPMI containing 0.2% BSA, were seeded at 100,000 cells/well in polystyrene 96 well round-bottom plates (Greiner bio-one Cat #650101) and centrifuged for 3 minutes at 300×g, 4° C. Serial dilutions (0.003-10 μg/mL final antibody concentration in 3.33× serial dilutions) of CD37 or control antibodies were added and cells were incubated for 30 minutes at 4° C. Plates were washed/centrifuged twice using FACS buffer (PBS/0.1% BSA/0.01% Na-Azide). Next, cells were incubated for 30 minutes at 4° C. with R-Phycoerythrin (PE)-conjugated goat-anti-human IgG F(ab′)2 (Jackson ImmunoResearch Laboratories, Inc., West Grove, PA; cat #: 109-116-098) diluted 1/100 in PBS/0.1% BSA/0.01% Na-Azide. Cells were washed/centrifuged twice using FACS buffer, resuspended in 30 μL FACS buffer and analyzed by determining mean fluorescent intensities using an Intellicyt iQue™ screener (Westburg). Binding curves were generated using non-linear regression (sigmoidal dose-response with variable slope) analyses within GraphPad Prism V6.04 software (GraphPad Software, Sand Diego, CA, USA).
Binding to CHO cells expressing cynomolgus monkey CD37 was determined by flow cytometry using a method as described above.

Q: Does B1 bind?
A: binds

Q: Does B2 bind?
A: binds

Q: Does B3 bind?
A: binds

Q: Does B4 bind?
A: binds

Q: Does B5 bind?
A: no binding (tested: 0.003-10 µg/mL)

Q: Does B6 bind?
A: no binding (tested: 0.003-10 µg/mL)

Molecular target: T1, cynomolgus monkey CD37
Assay: flow cytometry, Alexa-488 labeled antibody on B cells in cynomolgus monkey whole blood; average of 4 animals
Procedure: (§2) Binding to human or cynomolgus monkey B cells was determined in a whole blood binding assay. Heparin-treated human blood from healthy volunteers was derived from UMC Utrecht (Utrecht, The Netherlands), hirudin-treated blood from cynomolgus monkeys was derived from Covance (Münster, Germany). Blood was aliquoted to wells of a 96-well round-bottom plate (Greiner Bio-one, cat. no. 65010; 35 μL/well). Red blood cells (RBC) were lysed by addition of 100 μL RBC lysis buffer (10 mM KHCO₃ [Sigma P9144], 0.1 mM EDTA [Fluka 03620] and […] NH₄CL [Sigma A5666]) and incubated on ice until RBC lysis was complete.
(§3) Cells were pelleted and washed twice in 150 μL FACS buffer and resuspended in 150 μL TO-PRO-3 (end concentration 0.2 μM; Molecular Probes, cat no. T3605). Samples were measured by flow cytometry using an LSRFortessa flow cytometer. Binding is expressed as geometric mean of A488 fluorescence intensity for viable TO-PRO-3⁻/CD14⁻/CD19⁺ B-cells (human) or viable TO-PRO-3⁻/CD14⁻/CD19⁺/CD20⁺ B-cells (cynomolgus monkey). Log-transformed data were analyzed using best-fit values of a non-linear dose-response fit in GraphPad PRISM.

Q: B7 was tested. Which EC50 did it give?
A: 0.63 µg/mL

molecular target: T2, human CD37; assay: flow cytometry, Alexa-488 labeled antibody on B cells in human whole blood; average of 6 donors
Procedure: as §2, §3

Q: For B7, which EC50 is on record?
A: 0.85 µg/mL

molecular target: T2, human CD37; assay: flow cytometry on Daudi cells
Procedure: as §1

Q: Does B8 bind?
A: binds

Q: Does B1 bind?
A: binds

Q: Does B9 bind?
A: binds

Q: Does B10 bind?
A: binds

Q: Does B2 bind?
A: binds

Q: Does B11 bind?
A: binds

Q: Does B12 bind?
A: binds

Q: Does B13 bind?
A: binds

Q: Does B3 bind?
A: binds

Q: Does B14 bind?
A: binds

Q: Does B15 bind?
A: binds

Q: Does B16 bind?
A: binds

Q: Does B4 bind?
A: binds

Q: Does B5 bind?
A: binds

Q: Does B6 bind?
A: binds
